# Laboratory results: PMC10646045, “Multiplexed detection of viral antigen and RNA using nanopore sensing and encoded molecular probes”
# Experiments:
# [1] = molecular target: SARS-CoV-2 spike protein S1 region (SARS-CoV-2, UniProt P0DTC2 13-685); assay: SPR; conditions: protein: commercial
# [2] = molecular target: SARS-CoV-2 nucleocapsid protein (SARS-CoV-2, UniProt P0DTC9 1-419); assay: SPR; conditions: protein: commercial
Binder,Kd [1],Kd [2]
SBA (ssDNA) DNA: CACGCATAACGTCTTGCGGGGCGGCGGGTTGAGAGGATGTCGGGTGGTTATGCGTG,9.86 nM,
NBA (ssDNA) DNA: GCTGGATGTCGCTTACGACAATATTCCTTAGGGGCACCGCTACATTGACACATCCAGC,,0.73 nM
